{
  "source": "patent US4944948A",
  "about": "“EGF/Liposome gel composition and method” (Liposome Technology, Inc., priority 1989, dated 1990)",
  "key": {"[1]": {"details": "37° C., 25% human plasma/saline, 0.08 μm filter", "method": "Liposome formulations were evaluated in vitro by release rates of 125 I-rh-EGF into the receiver compartments of percutaneous absorption cells that were continuously perfused with 25% pooled human plasma/saline.\nA conventional two-chamber absorption cell, using a bath temperature of 37° C., was employed (Bronaugh). A 25 mm, 0.08 μm diameter Nuclepore (Pleasanton, Calif.) polycarbonate filter was used to separate the donor from the flow-through acceptor compartment. […] The ^125 I-rh-EGF preparation was mixed with an equal quantity of 25% pooled human plasma/isotonic saline and 200 μl aliquots were immediately applied to the donor compartments. Parafilm was used to occlude the donor compartment and prevent evaporative loss. The perfusate was collected by fraction collector into scintillation vials and mounted in a Packard TriCarg 20000. rh-EGF flux was calculated from the specific activity (DPM per μg peptide). Clearance rate half-lives were determined for individual percutaneous absorption cells as described below.\nIn this single phase system, it is possible to determine the concentration of peptide remaining in the donor compartment by subtracting cumulative peptide in the measured in the receiver compartment from total peptide applied to the donor compartment. […]"}, "[2]": {"details": "for % Lost (of total dose administered): from first order rate constants", "protocol": "The amount of radioactivity remaining in the injected eye was measured for up to 96 hours after injection (until at least 90% of the initial radioactivity had disappeared). An external NaI crystal detector/ratemeter (The Nucleus Model L) was placed directly over the eye and radioactivity measured for 2 minutes and recorded on a chart recorder. […] The mean chart deflection during each recording was taken as the measurement at that time point. The first reading was taken immediately after injection (\"zero time\") and subsequent measurements were converted to a percentage of this initial amount.\nIndividual radioactivity versus time data were recorded for each animal, and the mean values for each animal group (N=4-6) were calculated.\nEach plot was used to calculate first order rate constants for EGF disappearance from the eye for each formulation by a non linear least squares fitting method (RSTRIP, MicroMath, Salt Lake City, Utah).\nAt =A0 * e ^-kt or 1n(At)=1n (A0)-kt\nwhere k=0.693 / t1/2, the amount of EGF lost from the eye during any day can be calculated."}, "[3]": {"details": "rabbit, subconjunctival injection"}},
  "note": "Like-named read-outs stand apart in the source and are kept apart here.",
  "data": [
    {"smiles": "CC[C@H](C)[C@@H]1NC(=O)[C@H](Cc2ccc(O)cc2)NC(=O)CNC(=O)[C@H](C(C)C)NC(=O)[C@H](C(C)C)NC(=O)[C@@H](NC(=O)[C@H](CC(N)=O)NC(=O)[C@@H]2CSSC[C@@H]3NC(=O)[C@H](Cc4ccc(O)cc4)NC(=O)CNC(=O)[C@H](CC(=O)O)NC(=O)[C@H](Cc4c[nH]cn4)NC(=O)[C@H](CO)NC(=O)[C@H](CC(C)C)NC(=O)[C@@H]4CCCN4C(=O)[C@@H](NC(=O)[C@H](CCC(=O)O)NC(=O)[C@H](CO)NC(=O)[C@H](CC(=O)O)NC(=O)[C@H](CO)NC(=O)[C@@H](N)CC(N)=O)CSSC[C@H](NC(=O)[C@H](C(C)C)NC(=O)CNC(=O)[C@H](CC(=O)O)NC(=O)[C@H](Cc4c[nH]cn4)NC(=O)[C@H](CC(C)C)NC3=O)C(=O)N[C@@H](CCSC)C(=O)N[C@@H](Cc3ccc(O)cc3)C(=O)N[C@@H]([C@@H](C)CC)C(=O)N[C@@H](CCC(=O)O)C(=O)N[C@@H](C)C(=O)N[C@@H](CC(C)C)C(=O)N[C@@H](CC(=O)O)C(=O)N[C@@H](CCCCN)C(=O)N[C@@H](Cc3ccc(O)cc3)C(=O)N[C@@H](C)C(=O)N2)CSSC[C@@H](C(=O)N[C@@H](CCC(N)=O)C(=O)N[C@@H](Cc2ccc(O)cc2)C(=O)N[C@@H](CCCNC(=N)N)C(=O)N[C@@H](CC(=O)O)C(=O)N[C@@H](CC(C)C)C(=O)N[C@@H](CCCCN)C(=O)N[C@@H](Cc2c[nH]c3ccccc23)C(=O)N[C@@H](Cc2c[nH]c3ccccc23)C(=O)N[C@@H](CCC(=O)O)C(=O)N[C@@H](CC(C)C)C(=O)N[C@@H](CCCNC(=N)N)C(=O)O)NC(=O)[C@H](CCCNC(=N)N)NC(=O)[C@H](CCC(=O)O)NC(=O)CNC1=O", "note": "[Free EGF, Epidermal Growth Factor]", "values": [
      {"measurement": "Half-life of EGF release in vitro (slow phase for liposomes)", "setting": "[1]", "value": "about 1.8 hours"},
      {"measurement": "% Lost (of total dose administered)", "setting": "[2]; Day 1, includes initial burst", "value": 100, "unit": "%"},
      {"measurement": "% Lost (of total dose administered)", "setting": "[2]; Day 2", "value": 0, "unit": "%"},
      {"measurement": "% Lost (of total dose administered)", "setting": "[2]; Day 3", "value": 0, "unit": "%"},
      {"measurement": "% Lost (of total dose administered)", "setting": "[2]; Day 4", "value": 0, "unit": "%"},
      {"measurement": "% Lost (of total dose administered)", "setting": "[2]; Day 5", "value": 0, "unit": "%"},
      {"measurement": "% Lost (of total dose administered)", "setting": "[2]; Day 6", "value": 0, "unit": "%"},
      {"measurement": "% Lost (of total dose administered)", "setting": "[2]; Day 7", "value": 0, "unit": "%"},
      {"measurement": "Dose remaining in the eye", "setting": "[2]; after 3 hours", "value": "Less than 15%"},
      {"measurement": "EGF available at the conjunctival site", "setting": "[2]; one day after administration", "value": "substantially no EGF was available"},
      {"measurement": "Half life of EGF retention in the eye", "setting": "[2]; [3]", "value": 1, "unit": "h"},
      {"measurement": "Half-life of EGF disappearance from the eye", "setting": "[2]; [3]", "value": 1.0, "unit": "h"},
      {"measurement": "Half life of EGF retention in the eye", "setting": "[2]; rabbit, subconjunctival injection, listed as unencapsulated EGF", "value": 1.0, "unit": "h"},
      {"measurement": "Rate constant of EGF disappearance from the eye", "setting": "[2]; rabbit, subconjunctival, fit of loglinear portion after initial burst", "value": 0.69, "unit": "h⁻¹"}
    ]}
  ]
}
